Complete neutralization of 300 PFU of RSV-HRP (HRP signal OD490, HEp-2 cells), complete neutralization of 300 PFU of RSV-Lucia (secreted luciferase, luminometer) (antibody dilution (1:x, of 1 mg/ml)) and highest dilution data for one substance are collected here from patent US20260152727A1.

“And” between values parts separate entries of the source, which are not always exact repeats. Equal values may be shown once.

This test concerns the target RSV fusion (F) protein (prefusion F, on recombinant RSV strain A2 virions) (respiratory syncytial virus (strain A2)) (UniProt P03420). The test is described as follows: cell-based or functional assay.
Chain of UniProt P03420 (P03420 26-574): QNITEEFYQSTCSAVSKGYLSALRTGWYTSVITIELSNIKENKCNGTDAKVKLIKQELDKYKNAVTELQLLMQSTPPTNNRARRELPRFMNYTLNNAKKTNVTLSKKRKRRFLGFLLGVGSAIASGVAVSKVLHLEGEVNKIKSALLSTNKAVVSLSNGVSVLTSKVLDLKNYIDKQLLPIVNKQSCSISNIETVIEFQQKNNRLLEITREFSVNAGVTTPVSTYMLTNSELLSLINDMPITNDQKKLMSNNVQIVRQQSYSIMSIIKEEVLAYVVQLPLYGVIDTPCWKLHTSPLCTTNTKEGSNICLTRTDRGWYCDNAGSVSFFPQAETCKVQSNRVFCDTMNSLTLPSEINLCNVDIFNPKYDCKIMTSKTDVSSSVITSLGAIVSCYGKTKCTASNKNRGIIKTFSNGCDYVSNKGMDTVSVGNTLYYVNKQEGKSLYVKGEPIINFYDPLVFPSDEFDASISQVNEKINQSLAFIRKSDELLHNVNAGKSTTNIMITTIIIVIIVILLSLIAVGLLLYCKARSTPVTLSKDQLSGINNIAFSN

Turning to anti-prefusion F antibody D25, the complete neutralization of 300 PFU of RSV-HRP (HRP signal OD490, HEp-2 cells) was 370 ng/mL; the complete neutralization of 300 PFU of RSV-Lucia (secreted luciferase, luminometer) (antibody dilution (1:x, of 1 mg/ml)) turned out to be 2700; the highest dilution at which the antibody negatively impacted RSV infectivity (RSV-Lucia) was 5 ng/mL and 1.7 ng/mL; the highest dilution at which the antibody negatively impacted RSV-HRP infectivity is 5 ng/mL.
